Values of other authors in PMC3384300.

Tested on: MS2 coat protein (bacteriophage MS2?)

## natural MS2 coat protein aptamer
  Kd: 0.02 nM
